Experimental data: publication PMC3338484

Tested on: T1, Nc1nc2c(c(=O)[nH]1)N1CN(c3ccc(C(=O)NC(CCC(=O)O)C(=O)O)cc3)CC1CN2
T1 construct: hexa-histidine tag with TEV protease site (N, cleaved yes); made in house; host or cells: E. coli BL21 (DE3)
Assay: FolD enzyme assay (absorbance at 350 nm), IC50 determination
Assay type: biochemical, Pseudomonas aeruginosa
Conditions: other: 1 nM PaFolD, end-point assay; other substrate saturating; mean ± SD (n = 4); pH 7.9
Description: Enzyme activity was assayed by measuring the absorbance at 350 nm of the intermediate product in the reaction, N ^5,N ^10-methenyl-THF, following acidification of the reaction and consequent reconversion of the final product formyl-THF to the intermediate. Following optimization of the assay buffer and determination of the enzyme linearity, assays were carried out at room temperature in a 50 µL reaction volume containing 25 mM bicine, pH 7.9, 1 mM dithiothreitol, 0.05% CHAPS, 0.2 mg mL^−1 BSA, 1 nM recombinant FolD, […] NADP^+ and 35 µM N ^5,N ^10-methylene-THF. Michaelis constants for the two substrates (NADP^+ and N ^5,N ^10-methylene-THF) were determined in an end-point assay, using these buffer and enzyme conditions.
The HTS was performed with a compound collection of 79,029 diverse structures based around 4000 chemical scaffolds. All compounds were dissolved in 100% DMSO to a concentration of 3 mM. Single point inhibition assays were carried out at room temperature in clear, flat bottom, polystyrene, 384-well plates (Matrix). Each assay was performed in a 50 µL reaction volume as described above. […] The FolD assay was run at room temperature for 20 min and the signal was allowed to develop for 10 min before the absorbance of each well was read at 350 nm using an EnVision multilabel plate reader (PerkinElmer Life Sciences). […]

PaFolD (Pseudomonas aeruginosa PAO1)
Km: 26 ± 4 µM
